Data taken from article PMC12299175 (2025).

Molecular target: synthetic peptide of stem helix (1141-1161) of SARS-CoV-2 WT S with biotin at C terminus (SARS-CoV-2, UniProt P0DTC2 1141-1161, biotin at C terminus)
Test: BLI

B1: S2P6 recombinant mAb with human IgG1 constant region (antibody, V domains shown)
VH: EVQLVQSGAEVKKPGASVKVSCKASGYTFTSQYMHWVRQAPGQGLEWIGIINPSGVHTSYAQKFQGRVTLTRDTSTSTLYMELSSLRSEDTAVYYCARGSPKGAFDYWGQGTLVTVSS
VL: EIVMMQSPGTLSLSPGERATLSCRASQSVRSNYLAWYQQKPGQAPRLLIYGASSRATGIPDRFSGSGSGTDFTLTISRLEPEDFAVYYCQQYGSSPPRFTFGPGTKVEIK
Work on B1 yielded a koff of less than 1e-06 s⁻¹.
